Data on 36 molecules can be found in patent publication US20190062438A1 (CSL, published 2019).

Substitutions are numbered along the chain they refer to.

Sequences and labels used below:
T1: human CD131 (human, UniProt P32927 17-897)
T1 sequence: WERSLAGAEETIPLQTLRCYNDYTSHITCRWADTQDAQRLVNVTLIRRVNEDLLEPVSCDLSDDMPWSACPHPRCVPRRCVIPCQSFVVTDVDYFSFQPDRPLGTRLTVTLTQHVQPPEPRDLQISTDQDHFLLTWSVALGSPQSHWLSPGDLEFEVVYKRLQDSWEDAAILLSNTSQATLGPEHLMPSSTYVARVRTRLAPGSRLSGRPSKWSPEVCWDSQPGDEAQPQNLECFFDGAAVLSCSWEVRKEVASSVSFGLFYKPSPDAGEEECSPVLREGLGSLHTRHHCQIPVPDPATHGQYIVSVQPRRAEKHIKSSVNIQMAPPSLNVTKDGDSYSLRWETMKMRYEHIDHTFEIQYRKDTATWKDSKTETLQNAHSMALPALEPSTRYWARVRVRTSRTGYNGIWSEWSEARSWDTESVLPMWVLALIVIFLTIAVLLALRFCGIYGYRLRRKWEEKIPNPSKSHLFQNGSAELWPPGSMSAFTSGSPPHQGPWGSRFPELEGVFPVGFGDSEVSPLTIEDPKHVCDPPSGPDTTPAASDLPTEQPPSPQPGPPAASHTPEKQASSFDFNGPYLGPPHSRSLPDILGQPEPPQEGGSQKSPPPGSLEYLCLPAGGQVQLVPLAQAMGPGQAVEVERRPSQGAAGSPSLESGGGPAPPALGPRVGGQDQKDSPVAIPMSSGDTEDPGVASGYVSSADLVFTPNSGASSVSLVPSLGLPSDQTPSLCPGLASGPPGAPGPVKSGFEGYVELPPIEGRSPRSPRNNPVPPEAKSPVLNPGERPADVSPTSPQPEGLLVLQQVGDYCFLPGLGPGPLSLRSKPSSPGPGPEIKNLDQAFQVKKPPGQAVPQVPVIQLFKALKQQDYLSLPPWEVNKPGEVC

B1: 9A2-VR24.107 (antibody, V domains shown)
VH: EVQLLESGGGLVQPGGSLRLSCAASGFTFPWYRVHWVRQAPGKGLEWVSSIRSSGGFPYYNPFVKGRFTISRDNSKNTLYLQMNSLRAEDTAVYYCARFYDSFFDIWGQGTMVTVSS
VL: DIQMTQSPSSVSASVGDRVTITCRASQGISSWLAWYQQKPGKAPKLLIYAASSLQSGVPSRFSGSGSGTDFTLTISSLQPEDFATYYCQQANSFPITFGQGTRLEIKR
B2: 9A2-VR24.122 (antibody, V domains shown)
VH: B1 VH with P58T, P62S, F63E
VL: B1 VL
B3: 9A2-VR39.17 (antibody, V domains shown)
VH: EVQLLESGGGLVQPGGSLRLSCAASGFTFPFYHKVWVRQAPGKGLEWVSSINGRGRVTYYADSVKGRFTISRDNSKNTLYLQMNSLRAEDTAVYYCARFYDSFFDIWGQGTMVTVSS
VL: B1 VL
B4: 9A2-VR39.16 (antibody, V domains shown)
VH: B3 VH with P30Q, F31W, Y32F, H33N, K34I
VL: B1 VL
B5: 9A2-VR24.98 (antibody, V domains shown)
VH: B1 VH with Y59H, P62S, F63V
VL: B1 VL
B6: 9A2-VR24.27 (antibody, V domains shown)
VH: B1 VH with N61H, P62Q, F63K
VL: B1 VL
B7: 9A2-VR39.02 (antibody, V domains shown)
VH: B3 VH with P30Y, F31W, K34M, V35I
VL: B1 VL
B8: 9A2-VR39.18 (antibody, V domains shown)
VH: B3 VH with F31G, H33V, K34W, V35I
VL: B1 VL
B9: 9A2-VR24.30 (antibody, V domains shown)
VH: B1 VH with P62R, F63R
VL: B1 VL
B10: 9A2-VR39.21 (antibody, V domains shown)
VH: B3 VH with P30Q, F31H, K34T
VL: B1 VL
B11: 9A2-VR39.19 (antibody, V domains shown)
VH: B3 VH with P30Q, F31Y, Y32F, H33N, K34V, V35I
VL: B1 VL
B12: 9A2-VR24.102 (antibody, V domains shown)
VH: B1 VH with Y59F, P62S, F63S
VL: B1 VL
B13: 9A2-VR24.97 (antibody, V domains shown)
VH: B1 VH with N61S, P62L, F63S
VL: B1 VL
B14: 9A2-VR24.44 (antibody, V domains shown)
VH: B1 VH with N61H, F63S
VL: B1 VL
B15: 9A2-VR24.33 (antibody, V domains shown)
VH: B1 VH with P62H, F63K
VL: B1 VL
B16: 9A2-VR24.55 (antibody, V domains shown)
VH: B1 VH with P58T, F63S, G66N
VL: B1 VL
B17: 9A2-VR39.01 (antibody, V domains shown)
VH: B3 VH with P30F, F31W, Y32F, K34H
VL: B1 VL
B18: 9A2-VR24.57 (antibody, V domains shown)
VH: B1 VH with P58T, F63K, G66H
VL: B1 VL
B19: 9A2-VR24.56 (antibody, V domains shown)
VH: B1 VH with P58T, F63A, K65R
VL: B1 VL
B20: 9A2-VR24.124 (antibody, V domains shown)
VH: B1 VH with P58T, N61T, F63S, K65R
VL: B1 VL
B21: 9A2-VR39.04 (antibody, V domains shown)
VH: B3 VH with P30N, F31W, Y32F, H33Q, K34H, V35I
VL: B1 VL
B22: 9A2-VR24.110 (antibody, V domains shown)
VH: B1 VH with P62N, F63H
VL: B1 VL
B23: 9A2-VR39.12 (antibody, V domains shown)
VH: B3 VH with P30F, F31W, Y32F, H33N, K34T
VL: B1 VL
B24: 9A2-VR24.93 (antibody, V domains shown)
VH: B1 VH with S53N, S54E, G55N, F57W, P58T, N61A, P62D, F63S
VL: B1 VL
B25: 9A2-VR39.11 (antibody, V domains shown)
VH: B3 VH with P30Q, F31E, Y32F, K34T, V35I
VL: B1 VL
B26: 9A2-VR24.131 (antibody, V domains shown)
VH: B1 VH with P58T, F63S, K65M
VL: B1 VL
B27: 9A2-VR39.05 (antibody, V domains shown)
VH: B3 VH with F31W, Y32F, K34T
VL: B1 VL
B28: 9A2-VR39.06 (antibody, V domains shown)
VH: B3 VH with P30Q, F31W, K34Y, V35I
VL: B1 VL
B29: 9A2-VR24.111 (antibody, V domains shown)
VH: B1 VH with Y59M, F63H
VL: B1 VL
B30: 9A2-VR5 (antibody, V domains shown)
VH: B3 VH with P30S, F31H, K34M, V35L, N52R, G53S, R54S, R56G, V57F
VL: B1 VL with S30R, S31P, W32F, L33V
B31: 9A2-VR13 (antibody, V domains shown)
VH: B3 VH with P30S, F31H, K34M, V35L, N52R, G53S, R54S, R56G, V57F
VL: B1 VL with Q89G, Q90K, A91P, N92V, S93L, F94D
B32: 9A2-VR11 (antibody, V domains shown)
VH: B3 VH with P30S, F31H, K34M, V35L, N52R, G53S, R54S, R56G, V57F
VL: B1 VL with I29V, S30R, S31P, W32F, L33V, A34S
B33: 9A2-VR9 (antibody, V domains shown)
VH: B3 VH with P30S, F31H, K34M, V35L, N52R, G53S, R54S, R56G, V57F
VL: B1 VL with S30R, S31P, W32F, L33I, A34D
B34: 9A2-VR12 (antibody, V domains shown)
VH: B3 VH with P30S, F31H, K34M, V35L, N52R, G53S, R54S, R56G, V57F
VL: B1 VL with S30R, S31P, W32F, L33V, A34S
B35: 9A2-VR8 (antibody, V domains shown)
VH: B3 VH with P30S, F31H, K34M, V35L, N52R, G53S, R54S, R56G, V57F
VL: B1 VL with I29V, S30R, S31P, W32F, L33I, A34S
B36: 9A2-VR6 (antibody, V domains shown)
VH: B3 VH with P30S, F31H, K34M, V35L, N52R, G53S, R54S, R56G, V57F
VL: B1 VL with I29V, S30R, S31P, W32F, L33V, A34N

The first experiment deals with T1, human CD131. Kind of experiment: cell-based or functional assay.
For the molecule B1, the “IC50 GM-CSF, TF-1 proliferation” value is 0.3 nM.

Take B2: the “IC50 GM-CSF, TF-1 proliferation” value turned out to be 0.66 nM.

Consider B3, for which the “IC50 GM-CSF, TF-1 proliferation” value was found to be 0.67 nM.

Take B4: the “IC50 GM-CSF, TF-1 proliferation” value was determined as 6.07 nM.

Regarding B5, the “IC50 GM-CSF, TF-1 proliferation” value is 0.25 nM.

Consider B6, for which the “IC50 GM-CSF, TF-1 proliferation” value turned out to be 0.25 nM.

As to B7, the “IC50 GM-CSF, TF-1 proliferation” value stood at 0.46 nM.

On to B8, for which the “IC50 GM-CSF, TF-1 proliferation” value was > 1000 nM.

As for B9, the “IC50 GM-CSF, TF-1 proliferation” value was found to be 0.25 nM.

In the case of B10, the “IC50 GM-CSF, TF-1 proliferation” value turned out to be 0.96 nM.

On to B11, for which the “IC50 GM-CSF, TF-1 proliferation” value came to 7.26 nM.

Turning to B12, the “IC50 GM-CSF, TF-1 proliferation” value came out at 0.32 nM.

Regarding B13, the “IC50 GM-CSF, TF-1 proliferation” value stood at 0.16 nM.

Consider B14, for which the “IC50 GM-CSF, TF-1 proliferation” value was 0.4 nM.

B15: the “IC50 GM-CSF, TF-1 proliferation” value was 0.34 nM.

Take B16: the “IC50 GM-CSF, TF-1 proliferation” value amounted to 0.6 nM.

As for B17, the “IC50 GM-CSF, TF-1 proliferation” value amounted to 0.51 nM.

In the case of B18, the “IC50 GM-CSF, TF-1 proliferation” value was found to be 0.33 nM.

As for B19, the “IC50 GM-CSF, TF-1 proliferation” value was 0.48 nM.

Consider B20, for which the “IC50 GM-CSF, TF-1 proliferation” value was 0.54 nM.

For the molecule B21, the “IC50 GM-CSF, TF-1 proliferation” value was determined as 30.4 nM.

Take B22: the “IC50 GM-CSF, TF-1 proliferation” value is 0.24 nM.

On to B23, for which the “IC50 GM-CSF, TF-1 proliferation” value amounted to 25.1 nM.

On to B24, for which the “IC50 GM-CSF, TF-1 proliferation” value was 0.92 nM.

As for B25, the “IC50 GM-CSF, TF-1 proliferation” value came out at 18.6 nM.

On to B26, for which the “IC50 GM-CSF, TF-1 proliferation” value amounted to 1.06 nM.

As for B27, the “IC50 GM-CSF, TF-1 proliferation” value was determined as 0.96 nM.

With B28, the “IC50 GM-CSF, TF-1 proliferation” value is 1.85 nM.

Take B29: the “IC50 GM-CSF, TF-1 proliferation” value turned out to be 0.42 nM.

Another experiment concerns the target T1, human CD131. The experiment is described as follows: cell-based or functional assay. This is another data set of the same source.
B30: the “IC50 GM-CSF, TF-1 proliferation” value amounted to 87 nM.

With B31, the “IC50 GM-CSF, TF-1 proliferation” value is > 1000 nM.

Turning to B32, the “IC50 GM-CSF, TF-1 proliferation” value amounted to 353 nM.

Regarding B33, the “IC50 GM-CSF, TF-1 proliferation” value stood at 72.7 nM.

Consider B34, for which the “IC50 GM-CSF, TF-1 proliferation” value is 198 nM.

Turning to B35, the “IC50 GM-CSF, TF-1 proliferation” value was determined as 57.7 nM.

As to B36, the “IC50 GM-CSF, TF-1 proliferation” value came to 250 nM.
